Results taken from patent US20180185504A1 (Regeneron, published 2018).
Substitutions are numbered along the chain they refer to. In names and notes the source's numbering stands.

B1: H1H6966N (antibody, human IgG1, V domains shown)
VH: QVQLVQSGAEVQKPGASVKVSCKVSGYTLTALSIHWVRQAPGKGLEWMGNFDPGDGETIHAQKFQGRVTMTGDTSTDTAYMELSSLRSEDTAVYYCVGVTFDYWGQGTLVTVSS
VL: EIVMTQSPATLSVSPGERATLSCRASQSVASNLAWYQQKPGQAPRLLLYGASTRATGIPARFSGSGSGTEFTLTISSLQSEDFALYYCQHYNNWPLTFGGGTKVEIK
notes: Tested with human IgG1 Fc (H1H); also called H2M6966N
B2: H1H6967N (antibody, human IgG1, V domains shown)
VH: EVQLVESGGDLVHPGRSLRLSCAASGFPFDEYAMHWVRQVPGKGLEWVSGISWSNNNIGYADSVKGRFTISRDNAKNSLYLQMNSLRPEDTAFYYCAKSGIFDSWGQGTLVTVSS
VL: B1 VL with A30S, S31R, N32D, L48I, Y49H, T69A, T74I, L85V, H90Q
notes: Tested with human IgG1 Fc (H1H); also called H2M6967N
B3: H1H6975N (antibody, human IgG1, V domains shown)
VH: EVHLVESGGGLVQPGGSLRLSCAASGFTFSSYEMNWVRQTPGKGLEWISHISSRSVIIYYADSVKGRFTISRDNAKNSLFLQMNSLRAEDTAVYFCAGITIFGIPEYWGQGTLVTVSS
VL: EIVLTQSPATLSLSPGERATLSCRASQSVSSYFAWYQQKPGQAPRLLIYDASSRATGIPTRFSGSGSGTDFTLTISSLEPEDFAVYYCQQRSSWPITFGQGTRLEIK
notes: Tested with human IgG1 Fc (H1H); also called H2M6975N
B4: H1H6976N (antibody, human IgG1, V domains shown)
VH: EVQLLESGGGFVQPGGSLRLSCAASGFTFSSYAMSWVRQAPGKGLEWVSIISSNGRYTYYADSVKGRFTISRDNSKNTLYLQMNSLRAEDTAVYYCATVTGDWFDPWGQGTLVTVSS
VL: DIQLTQSPSFLSASVGDRVTITCWASQDIDISLAWYQQKPGKAPKLLIYAASTLQSGVPSKFSGSGSGTDFTLTISSLQPEDFSTYYCQQLNSYPITFGQGTRLDIK
notes: Tested with human IgG1 Fc (H1H); also called H2M6976N
B5: H1H6762P (antibody, human IgG1, V domains shown)
VH: QVQLVESGGGVVQPGRSLRLSCAASGFTFSHYGMVWVRQPPGKGLEWVALISFDGTTKYYADSVKGRFTISRDNSKNTLYLQMNSLRAEDTAVYFCVGAIAAAAFDLWGRGTLVTVSS
VL: EIVMTQSPATLSVSPGERATLSCRASQSVSSDLAWYQQKPGQAPRLLIYSASARATGIPARFTGSGSGTDFTLTISSLQSEDFAVYYCQQYNNWPMYTFGQGTKLEIK
notes: Human IgG1 Fc (H1H)
B6: H1H6765P (antibody, human IgG1, V domains shown)
VH: EVQLVESGGGVVRPGGSLRLSCVGSGFSFDDHGMNWVRQGPGKGLEWVSGFNWNGGSTNYAESVKGRFTISRDNARNSLFLQMNSLRAEDTALYYCVRGRSGWFNDAFDVWGPGTMVTVSS
VL: EIVLTQSPGTLSLSPGERATLSCRASQTINSNYLAWYRQKPGQTPRLLIYGTSSRATGIPDRFSGSGSGTDFSLTISRLEPEDFAVFYCQQYAGLPTFGPGTKVDIK
notes: Human IgG1 Fc (H1H)
B7: H1H6774P (antibody, human IgG1, V domains shown)
VH: EVQLVESGGGLAQPGGSLRLSCVASGFTFSTYWMSWVRQAPGKGLDWVGNIKQDGSEQNYVDSVRGRFTISRDNAKNSLFLQMNSLRAEDTGVYYCATLLTKGDYWGQGTLVTVSS
VL: DIQMTQSPSSLSASVGDSVTITCRASQDISNYLDWFQQKPGKAPKSLIYAASILQGGVPSRFSGSGYGTDFTLTISSLQPEDFATYYCRQYKTYPFTFGPGTKVDIK
notes: Human IgG1 Fc (H1H)
B8: H1H6781P (antibody, human IgG1, V domains shown)
VH: EVQLVESGGDLVQPGESLRLSCTASGFTFNSYEMNWVRQAPGKGLEWVSYISSSGGTKYYVDSVKGRFTISRDNAKKSLYLQMNSLRADDTALYYCARLNGVDVFDIWGQGTMVTVSS
VL: DIQMTQSPSSLSASVGDRVTITCRASQDIFNYLAWFQQKPGKVPELLISAASTLQSGVPSRFSGSGSGTYFTLTISSLQPEDIATYYCQRYNSAPLTFGGGTKVEIK
notes: Human IgG1 Fc (H1H)
B9: H1H6782P (antibody, human IgG1, V domains shown)
VH: EVQLVESGGGLVQPGRSLRLSCAASGFTFDDYAMHWVRQAPGKGLEWVSGIIWNSGHIGYGDSVKGRFTISRDNAKKSLYLQMNSLRAEDTALYYCARDSGRYQSYFDYWGQGTLVTVSS
VL: DIQMTQSPSTLSASVGDRVTITCRASHIISSWLAWYQQKPGKAPKVLIFKASSLESGVPSRFSGSGSGTEFTLTISSLQPDDFATYYCQQYNTYSRTFGQGTKVEIK
notes: Human IgG1 Fc (H1H)
B10: H1H6783P (antibody, human IgG1, V domains shown)
VH: QVQLQQSGPGLVKPSQTLSLTCAISGDSVSSNTFAWNWIRQSPSRGLEWLGRTYYRSKWYIDYAESVKSRITITPDTSKNQFSLQLNSVTPEDTALYYCAGGYTYAPRGAFDIWGQGTMVTVSS
VL: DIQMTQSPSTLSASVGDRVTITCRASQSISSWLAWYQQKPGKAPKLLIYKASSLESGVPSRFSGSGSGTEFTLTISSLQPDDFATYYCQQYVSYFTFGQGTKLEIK
notes: Human IgG1 Fc (H1H)
B11: H1H6785P (antibody, human IgG1, V domains shown)
VH: EVQLVESGGGLVQPGGSLRLSCAASGFTFSSYEMNWVRQAPGKGLEWISYISSRGGTIYYADSIKGRFTIYRDNARNSLYLQMNSLRAEDTAIYYCARLSGVDIFDIWGQGTMVTVSS
VL: B8 VL with D28G, F30S, F36Y, E45K, S49Y, A50F, S65G, Y70D, I83V
notes: Human IgG1 Fc (H1H)
B12: H1H6790P (antibody, human IgG1, V domains shown)
VH: EVQLVESGGGLVQPGGSLRLSCAASGFTFSSYAMTWVRQAPGKGLEWVSAITGSVGNTYYADSVKGRFTISRDNSKNTLYLQMNSLGAEDTAEYYCAKGAGMTTNWYLDLWGRGTLVTVSS
VL: DIVMTQSPDSLAVSLGARATINCKSSQSVLYSSNNQNYLTWYQQKPGQPPKLLIKWASTRESGVPDRFSGSGSGTDFTLTISSLQAEDVAVYYCQQYASSPYTFGQGTKLEIK
notes: Human IgG1 Fc (H1H)

What was measured:
Experiment in all cases: SPR Biacore, 25 C, mAb capture
[1] = target: T1, hPRLR.mmh (soluble monomeric human PRLR) (human)
T1 construct: called soluble monomeric PRLR protein
T1 chain: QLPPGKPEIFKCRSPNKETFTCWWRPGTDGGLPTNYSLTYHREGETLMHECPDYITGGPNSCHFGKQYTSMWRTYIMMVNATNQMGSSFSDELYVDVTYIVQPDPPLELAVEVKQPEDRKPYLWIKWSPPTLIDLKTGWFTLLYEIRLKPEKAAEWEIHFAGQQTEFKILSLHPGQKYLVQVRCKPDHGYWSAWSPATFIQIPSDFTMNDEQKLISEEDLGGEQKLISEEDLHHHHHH
Procedure: (§1) Measurements were conducted on a T200 Biacore instrument. Kinetic association (kₐ) and dissociation (kd) rate constants were determined by processing and fitting the data to a 1:1 binding model using Scrubber 2.0 curve fitting software.

[2] = target: T2, hPRLR.mFc (soluble dimeric human PRLR) (human)
T2 construct: dimeric PRLR construct
T2 chain: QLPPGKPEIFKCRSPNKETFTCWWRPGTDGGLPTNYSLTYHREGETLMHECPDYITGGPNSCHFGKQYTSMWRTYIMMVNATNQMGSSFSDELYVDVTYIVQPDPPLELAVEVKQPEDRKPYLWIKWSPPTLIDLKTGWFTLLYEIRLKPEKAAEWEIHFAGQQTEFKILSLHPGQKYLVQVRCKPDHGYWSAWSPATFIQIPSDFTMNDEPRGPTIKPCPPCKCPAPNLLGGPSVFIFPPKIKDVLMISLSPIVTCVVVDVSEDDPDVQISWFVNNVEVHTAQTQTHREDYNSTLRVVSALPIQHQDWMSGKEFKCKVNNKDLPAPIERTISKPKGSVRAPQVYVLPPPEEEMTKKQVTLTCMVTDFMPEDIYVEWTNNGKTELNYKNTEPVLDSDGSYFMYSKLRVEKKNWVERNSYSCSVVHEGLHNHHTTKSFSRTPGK
Procedure: as §1

[3] = target: T3, macaca fascicularis (mf) PRLR.mmh (soluble monomeric monkey PRLR) (Macaca fascicularis)
T3 construct: called soluble monomeric PRLR protein
T3 chain: T1 chain with I76V, A110T, I125M, I158T, T207I
Procedure: as §1

| Binder | Kd [1] [nM] | T½ [1] [h] | koff [1] [s⁻¹] | kon [1] [M⁻¹ s⁻¹] | Kd [2] [nM] | T½ [2] [h] | koff [2] [s⁻¹] | kon [2] [M⁻¹ s⁻¹] | Kd [3] [nM] | T½ [3] [h] | koff [3] [s⁻¹] | kon [3] [M⁻¹ s⁻¹] |
| --- | --- | --- | --- | --- | --- | --- | --- | --- | --- | --- | --- | --- |
| B1 | 0.302 | 0.748 | 0.000257 | 852000 | 0.0439 | 4.71 | 4.08e-05 | 931000 | 0.416 | 0.593 | 0.000325 | 782000 |
| B2 | 1.35 | 0.58 | 0.000332 | 246000 | 0.11 | 4.32 | 4.45e-05 | 407000 | 3.08 | 0.328 | 0.000585 | 190000 |
| B3 | 0.49 | 2.62 | 7.35e-05 | 150000 | 0.0684 | 9.8 | 1.97e-05 | 287000 | 1.14 | 1.47 | 0.000131 | 115000 |
| B4 | 1.59 | 0.223 | 0.000864 | 544000 | 0.0906 | 1.91 | 0.000101 | 1.12e+06 | 1.75 | 0.237 | 0.000814 | 466000 |
| B5 | 0.259 | 1.07 | 0.000179 | 692000 | 0.0992 | 2.98 | 6.45e-05 | 651000 | 0.511 | 0.917 | 0.000208 | 408000 |
| B6 | 0.124 | 1.7 | 0.000113 | 907000 | 0.0392 | 5.65 | 3.41e-05 | 869000 | 0.254 | 1.43 | 0.000134 | 527000 |
| B7 | 1.14 | 0.233 | 0.000818 | 715000 | 0.112 | 2.15 | 8.94e-05 | 798000 | 1.77 | 0.217 | 0.000875 | 495000 |
| B8 | 0.61 | 1.52 | 0.000127 | 208000 | 0.236 | 3.18 | 6.05e-05 | 257000 | 0.986 | 1.37 | 0.000141 | 143000 |
| B9 | 0.685 | 0.783 | 0.000247 | 360000 | 0.225 | 2.7 | 7.13e-05 | 317000 | 1.05 | 0.683 | 0.000279 | 266000 |
| B10 | 1.43 | 0.467 | 0.000413 | 288000 | 0.332 | 2.2 | 8.77e-05 | 264000 | 1.81 | 0.567 | 0.000341 | 189000 |
| B11 | 0.567 | 1.13 | 0.000171 | 301000 | 0.231 | 3.17 | 6.07e-05 | 263000 | 0.738 | 1.15 | 0.000167 | 227000 |
| B12 | 1.41 | 0.233 | 0.000799 | 565000 | 0.192 | 1.85 | 0.000104 | 542000 | 2.04 | 0.25 | 0.000793 | 389000 |
